# From article PMC5095173, “Disulfide-activated protein kinase G Iα regulates cardiac diastolic relaxation and fine-tunes the Frank–Starling response” (Nature Communications, 2016)
# B1: Mylk3 pS444 (protein, UniProt E9PT87 1-786, looked up)
# Myosin light chain kinase 3: MSGVSEEDPEGLGPQGLPALGGACLVTVDKKLNVLTEKVDRLLHFQEDVTEKLQCVCQGMDHLEQGLHRLEASQELGLAGPGSTSPAAAQAAWPEVLELVRAVRQEGAQHGARLEALFKMVVAVDRAITLVGSTIQNSKVDDFILQGTVPWRKGSLADGPEENKEQAEVAGVKPKHVLNTGSVQAATSRALWEESQKQDTPVGTVEGLPLIIDTSLKGADLTQAGASLRQGVEALDPGQEPPPTEAESRLPALASEDTGTTLELSVAIDRISEVLTSLRMSQSAGEGTSSSKPDCSEPGPQPLGPLTTDSDIHSDEGLPRISVRMREMTTPEELFETQGGSPIGSAEAPGPGTVLEDQIPKGARPFPPLPKRSCNNGGASAEEATGPGAEPIRGPSLVTRDWRDEPVGTTDLQQGRDPGAVSPEPGKDHAAQGPGRTEAGRRVSSAAEAAIVVLDDSAAPPAPFEHRVVSIKDTLISTSYTVSQHEVLGGGRFGQVHRCTERSTGLALAAKIIKVKNIKDREDVKNEINIMNQLSHVNLIQLYDAFESKNSFTLIMEYVDGGELFDRITDEKYHLTELDVVLFTRQICEGVHYLHQHYILHLDLKPENILCVSQTGHQIKIIDFGLARRYKPREKLKVNFGTPEFLAPEVVNYEFVSFPTDMWSVGVITYMLLSGLSPFLGETDAETMNFIVNCSWDFDADTFKGLSEEAKDFVSRLLVKEKSCRMSATQCLKHEWLNHLIAKASGSNVRLRSQLLLQKYMAQRKWKKHFHVVTAVNRLRKFPTCP
# modifications: phosphorylated at S444
# B2: Lrpprc pS656 (protein, UniProt Q5SGE0 78-1392, looked up)
# Leucine-rich PPR …: SGSQFDWALMRLDNSVRRTGRITKGLLQKVFESTCRSGSPGSNQALLLLRSCGSLLPELSLAERTEFAHKIWDKLQQLGTVYDVSHYNALLKVYLQNEYRFSPTDFLAKMEGANIQPNRVTYQRLIAAYCSVGDIEGASKILGFMKTRDLPITEAVFSALVTGHARAGDMESAENILTVMKQAGIEPGPDTYLALLNAHAEKGDIDHVKQILEKVEKSDHYFMDRDFLQIIVSFSKAGYPQYVSEILEKITYERRSIPDAMNLILLLVTEKLEDTAFQVLLALPLARDETSSSFGSFFLRHCVTMDTPAEKLIDYCKRLRDAKVHSSSLQFTLHCALQANKTALAKAVMEALRDEGFPIRTHYFWPLLVGHQKTKNVQGIIDILKIMKEMGVDPDQETYINYVFPCFGSVQSARAALQENKCLPKSTTFAQAEVRNEAINGNLQNILSFLESNALPFSFNSLRGSLILGFRRSMNIDLWSKITELLYKDDRYCQKPPGPTEAVGYFLYNLIDSMSDSEVQAKEERLRQYFHQLREMNVKVSENIYKGICNLLDNYHVPELIKDVKVLVDREKIDSRKTSQFTSSDLESTLEKLKAEGHPVGDPLKQLILLLCSEENMQKALEVKAKYESDMVIGGYAALINLCCRHDNAEDALNLKQEFDRLDPSAVLDTAKYVALVKVLGKHGRVQDAINILKEMKEKDVVIKDAAVLSFFHILNGAALRGEIETVKQLHEAIVTLGLAKPSSNISFPLVTVHLEKDDLPAALEASIACHEKYKVLPRIHDVLCKLIEKGETDLIQKAMDFVSQEQGEMSMLYDLFFAFLQTGNYKEAKKIIETPGIRARPTRLQWFCDRCIANNQVETLEKLVELTEKLFECDRDQMYYNLLKLYKISGDWQRADAVWNKMQEENLIPRERTLRLLAGILKTSNQEVPFDVPELWFGDDRSSLSSSSPSAGDTVTEKMLLSDCRLKKSKDAYNIFLKAEKQDVVFSSEAYSTLVGLLLSKDDFTRAMHVKDFAETHIKGFTLNGAASSLLIIAQVRRDYLKVALETLKAALDLEQVPSELAVTRLIQALALQGDVKSIETIQKMVKGLDAIELSRMVFINNIALAQMKNNEIDAAIENIEHMLASENQTVEHQYFGLSYLFRKVIEEQMEPALEKLSIMSERLANQFALYKPVTDLFLQLVDSGKVDEARALLERCGAIAEQTSILSVFCLRTSQKPKKAPVLKTLLELIPELRENDRVYSCSMKSYVADKDVASAKALYEHLTAKNMKLDDLFLKRYASLLKDVGEPVPFTEPPESFGFYIKQLKEARENPS
# modifications: phosphorylated at S656
# B3: Murc pS257 (protein, UniProt B1PRL5 1-362, looked up)
# Caveolae-associated protein 4: MEHNGSASNAGKIHQNRLSSVTEDEDQDAALTIVTVLDRVATVVDSVQASQKRIEERHREMGNAIKSVQIDLLKLSQSHSNTGYVVNKLFEKTRKVSAHIKDVKARVEKQQVRVTKVETKQEEIMKKNKFRVVIFQEDVPCPASLSVVKDRSLPENEEEAEEVFDPPIDLSSDEEYYVEESRSARLRKSGKEHIDHIKKAFSKENMQKTRQNFDKKVSGIRTRIVTPERRERLRQSGERLRQSGERLRQSGERFKKSISNATPSKEAFKIRSLRKPKDPKAEGQEVDRGMGVDIISGSLALGPIHEFHSDGFSETEKEVTKVGYIPQEGGDPPTPEPLKVTFKPQVRVEDDESLLLELKQSS
# modifications: phosphorylated at S257
# B4: Matr3 pT150 (protein, UniProt P43244 2-845, looked up)
# Matrin-3: SKSFQQSSLGRDSQGHGRDLSAAGIGLLAAATQSLSMPASLGRMNQGTARLASLMNLGMSSSLNQQGAHSALSSASTSSHNLQSIFNIGSRGPLPLSSQHRGDTDQASNILASFGLSARDLDELSRYPEDKITPENLPQILLQLKRRRTEEGPTLSYGRDGRSATREPPYRVPRDDWEEKRHFRRDSFDDRGPSLNPVLDYDHGSRSQESGYYDRMDYEDDRLRDGERCRDDSFFGETSHNYHKFDSEYERMGRGPGPLQERSLFEKKRGAPPSSNIEDFHGLLPKGYPHLCSICDLPVHSNKEWSQHINGASHSRRCQLLLEIYPEWNPDNDTGHTMGDPFMLQQSTNPAPGILGPPPPSFHLGGPAVGPRGNLGAGNGNLQGPRHMQKGRVETSRVVHIMDFQRGKNLRYQLLQLVEPFGVISNHLILNKINEAFIEMATTEDAQAAVDYYTTTPALVFGKPVRVHLSQKYKRIKKPEGKPDEKFDQKQELGRVIHLSNLPHSGYSDSAVLKLAEPYGKIKNYILMRMKSQAFIEMETREDAMAMVDHCLKKALWFQGRCVKVDLSEKYKKLVLRIPNRGIDLLKKDKSRKRSYSPDGKESPSDKKSKTDGAQKTENPAEGKEQEEKSGEDGEKDTKDDQTEQEPSMLLESEDELLVDEEEAAALIESGSSVGDETDLANLGDVSSDGKKEPSDKAVKKDASATSKKKLKKVDKIEELDQENEAALENGIKNEENTEPGAESAENADDPNKDASDNSDGQNDENKEDYTIPDEYRIGPYQPNVPGGIDYVIPKTGFYCKLCSLFYTNEEVAKNTHCSSLPHYQKLKKFLNKLAEERRQKKES
# modifications: phosphorylated at T150
# B5: Matr3 pS188 (protein, UniProt P43244 2-845, looked up)
# Matrin-3: B4 Matrin-3
# modifications: phosphorylated at S188
# B6: Map4 pT899 (protein, UniProt Q5M7W5 2-1057, looked up)
# Microtubule-associated …: ADLSLVDALTEPPPEIEGEIKRDFMAALEAEPYDDIVGETVEKTEFIPLLDGDEKSGNSESKRKPCVDTSQVEDIPSSKPTLLANGDHGVEGNNTTGSPTDFLVENVDYEDYQNSQSWPEDASFCFQPQQVLDTNQADPFNVHHDDGLADLLFVSSGPTNASAFIEENNPLEDSYGVLPCDSFAPTAVVSQEWSVGAPDSPHSEPCVSPEVTIETAQPATELSKAVDLESVKEQLPAKALEMMAGQTTDAVPSKESEGSPDTDAAPGPDTDVTLTKDIEESSSPDVISANVTQPFTESDMFLTQEMELLIGTEAAQVKDTMSSVEPDISSAKNTAPPTEEETVPGKDMTFPKEAETALPIEMDLAPPEDVALPKETELELAPAAGTAPLSETEVALAKDEEPSTGIPAAQEMLLSSETEVVLPSDSIMTLTKEVTVPLEAAGPLVSDMTAILETEMTLGGGTATPTETKLGKVKDMAPLPESEVALGKDVVTLPETKVTEFNNVTPLSEEEVASIKDVSPSPETETAKNADLHSGTELTLDNSMTPPSDPALPLETKVATVQIKDKETVQTQEELSEDSQLESVQLEGQSAVPPCTISPEPVKAADQKSTLPVDEGSPLEKLEQKETSGSQPPELCSGVSRQEEGKAAVGLTGNDIATPPNKELPPSPEKKAKPLATTQPAKTSTSKAKIQPTSLPKQPAPTTSGGLNKKPMSLASGSVPAAPHKRPAAATATARPSTLPARDLKPKPITETKVAEKRTSPSKPSSAPALRPGPKTTPTISKATSPSTLVSTGSSSRSPSTTLPKRPTTTKTEGKPADVKRMTAKSATADLSRSKTTSASSVKRNTTPTGATPPAGMASTRVKPMSAPCRSSVALSVDKKPTSTKPSSSAPRVSRLATTVSAPDLKSVRSKVGSTENMKHQPGGGRVQIQNKKVDISKVSSKCGSKANIKHKPGGGDVKIESQKLNFKEKAQAKVGSLDNVGHLPAGGTVKTEGGGSEAPPCPGPPAGEEPAIPEAAPDAGAPTSASGLSGHTTLSGGGDQREPQTLDSQIQETSI
# modifications: phosphorylated at T899
# B7: Micall1 pS307 (protein, UniProt D3ZQL6 1-855, looked up)
# MICAL-like protein 1: MAGPRGALLAWCRRQCEGYRGVDIRDLSSSFRDGLAFCAILHRHRPDLLDFQSLSKENVFENNRLAFEVAEKELGIPALLDPNDMVSMSVPDCLSIMTYVSQYYNHFTSSGQAAASPPKPGKDPAAPSPTSTSPAVQPGEEAQGDDLSPDSLSEQGKPQPPSSACAACGQRVHLVQRYLAEGRLYHRHCFRCRQCSSTLVPGSYSSGPEEGTFVCAERCTRLGLGGRSGTRPLSLQKQQPAAAAEAKDGEDSDLSKSVVVVAAEADGLQASSEVQPHTLTKPPLPSKPQDLASPPVSRPTPAPRKASESSALTPPTPRPRSSLQQDGMVEQSVSGDLVNGRLQELPVPKPRGTPKLSERMTAPRKDPPWITLVQTEPKKKPAPLPPSSGPGPLSQASRQVENGGLEEKTQKSPAAEPEPKPYNPFEEEEEEEEASVPAVPSPAPAPPETTPKSLHPWYNITPTSSPKTKKRPAPKAPSASPLVLHASRLSHSEPPSATPSPALSVESLSSESSSHTANTEPSEPPAVPKSSSDPAVHVPGTPGTSANSVTPSAHSSLSSSGELGQPSGEQMPQARTRGSPGTHSTKPFSGATPTPFLLAGDQKSPAPPMGSSSPQMLIKSSCKENPFNRKPSPSTSPTVRKATKGAKPVRPPAPGHGFPLIKRKVQADQYIPEEDIYGEMDSIERQLDALEHSGVLLEEKLRGGANEGSEDDMLVDWFKLIHEKHLLVRRESELIYVFKQQNLEQRQADVEFELRCLLNKPEKDWTDDDRAREKVLMQELMTLIEQRDAIVNCLDEDRQREEEEDKMLETMIKKKDFQREAESDSKKKGKFKTMKVLKLLGNKRDAKSKAPTGKS
# modifications: phosphorylated at S307
# Test system: PKGIα (analogue-sensitive M438G), disulfide-activated
# Assay: Chemical genetic phosphoproteomic screen, disulfide-activated PKGIα M438G versus unactivated control
# Format: biochemical, human PKGIα; substrates in rat heart homogenate
# Conditions: control = PKGIα C42S/M438G
# How it was run: (§1)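 Substrates in rat left-ventricle homogenate (20 mg ml) are labelled by engineered Met438Gly PKGIα given a bulky N6-alkylated ATPγS analogue, either as disulfide-activated M438G (oxidized, DTT-free) or as cGMP-activated C42S/M438G. Covalent capture and LC–MS/MS identify sites relative to unactivated kinase.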
row,Molecule,log2 fold change Disulfide vs Control
1,B1,0.1624
2,B2,0.7702
3,B3,0.9013
4,B4,1.381
5,B5,-0.9169
6,B6,1.73
7,B7,1.417

# Test system: PKGIα (analogue-sensitive C42S/M438G), cGMP-activated
# Assay: Chemical genetic phosphoproteomic screen, cGMP-activated PKGIα C42S/M438G versus unactivated control
# Format: biochemical, human PKGIα; substrates in rat heart homogenate
# Conditions: control = PKGIα C42S/M438G
# How it was run: as §1
row,Molecule,log2 fold change cGMP vs Control
1,B1,3.077
2,B2,4.57
3,B3,1.807
4,B4,3.582
5,B5,1.38
6,B6,3.693
7,B7,2.266
